These results are taken from patent publication US11319341B2, “Immune-stimulating soluble doxorubicin-conjugated complex” (Yafei (Shanghai) Biopharmaceutical Co., Ltd., priority 2016, dated 2022).

Each structure is given as a SMILES string. Residues, ends and D or L forms follow the SMILES beside them. *: point of attachment. Doxorubicin(3'-N) = COc1cccc2c1C(=O)c1c(O)c3c(c(O)c1C2=O)C[C@@](O)(C(=O)CO)C[C@@H]3O[C@H]1C[C@H](N*)[C@H](O)[C@H](C)O1; Mal(CH2CH2O)6CH2CH2CO = O=C1C=CC(=O)N1CCOCCOCCOCCOCCOCCOCCC(=O)*; MaleimidoPEG4propanoyl = O=C1C=CC(=O)N1CCOCCOCCOCCOCCC(=O)*; Hexanoyl(6-maleimido) = O=C1C=CC(=O)N1CCCCCC(=O)*; Butanoyl(4-maleimido) = O=C1C=CC(=O)N1CCCC(=O)*; Propanoyl(3-maleimido) = O=C1C=CC(=O)N1CCC(=O)*; PEG6 = NCCOCCOCCOCCOCCOCCOCCC(=O)O; X2 = O=C1C=CC(=O)N1CCOCCOCCC(=O)*; PEG4 = NCCOCCOCCOCCOCCC(=O)O; PEG3 = NCCOCCOCCOCCC(=O)O; PEG2 = NCCOCCOCCC(=O)O Some results are limits rather than exact numbers.

This data set in a line: Water solubility of freeze-dried compounds in water (observation and HPLC).
What is called solubility is the dissolved amount per volume that the medium holds. Lower therefore signals little dissolved substance. Turning to `COc1cccc2c1C(=O)c1c(O)c3c(c(O)c1C2=O)C[C@@](O)(C(=O)CO)C[C@@H]3O[C@H]1C[C@H](NC(=O)[C@H](CC(C)C)NC(=O)[C@H](CC(N)=O)NC(=O)[C@H](C)NC(=O)[C@H](C)NC(=O)[C@H](CC(=O)O)NC(=O)CCOCCOCCNC(=O)CCN2C(=O)C=CC2=O)[C@H](O)[C@H](C)O1` [QHL-042] ({Propanoyl(3-maleimido)-PEG2}-DAANL-{Doxorubicin(3'-N)}), the solubility is over 20 mg/mL.

Regarding `COc1cccc2c1C(=O)c1c(O)c3c(c(O)c1C2=O)C[C@@](O)(C(=O)CO)C[C@@H]3O[C@H]1C[C@H](NC(=O)[C@H](CC(C)C)NC(=O)[C@H](CC(N)=O)NC(=O)[C@H](C)NC(=O)[C@H](C)NC(=O)[C@@H](NC(=O)CCCCCN2C(=O)C=CC2=O)[C@@H](C)O)[C@H](O)[C@H](C)O1` [QHL-130] ({Hexanoyl(6-maleimido)}-TAANL-{Doxorubicin(3'-N)}), the solubility is over 2 mg/mL.

Regarding `COc1cccc2c1C(=O)c1c(O)c3c(c(O)c1C2=O)C[C@@](O)(C(=O)CO)C[C@@H]3O[C@H]1C[C@H](NC(=O)[C@H](CC(C)C)NC(=O)[C@H](CC(N)=O)NC(=O)[C@H](C)NC(=O)[C@H](C)NC(=O)[C@H](CCC(=O)O)NC(=O)CCOCCOCCOCCOCCOCCOCCNC(=O)CCN2C(=O)C=CC2=O)[C@H](O)[C@H](C)O1` [QHL-057] ({Propanoyl(3-maleimido)-PEG6}-EAANL-{Doxorubicin(3'-N)}), the solubility was over 25 mg/mL.

Turning to `COc1cccc2c1C(=O)c1c(O)c3c(c(O)c1C2=O)C[C@@](O)(C(=O)CO)C[C@@H]3O[C@H]1C[C@H](NC(=O)[C@H](CC(C)C)NC(=O)[C@H](CC(N)=O)NC(=O)[C@H](C)NC(=O)[C@H](C)NC(=O)[C@H](CC(=O)O)NC(=O)CCOCCOCCOCCNC(=O)CCCN2C(=O)C=CC2=O)[C@H](O)[C@H](C)O1` [QHL-072] ({Butanoyl(4-maleimido)-PEG3}-DAANL-{Doxorubicin(3'-N)}), the solubility was over 25 mg/mL.

Take `COc1cccc2c1C(=O)c1c(O)c3c(c(O)c1C2=O)C[C@@](O)(C(=O)CO)C[C@@H]3O[C@H]1C[C@H](NC(=O)[C@H](CC(C)C)NC(=O)[C@H](CC(N)=O)NC(=O)[C@H](C)NC(=O)[C@H](C)NC(=O)[C@H](CC(=O)O)NC(=O)CCOCCOCCOCCOCCN2C(=O)C=CC2=O)[C@H](O)[C@H](C)O1` [QHL-035] (MaleimidoPEG4propanoyl-DAANL-{Doxorubicin(3'-N)}): the solubility was over 25 mg/mL.

Turning to `COc1cccc2c1C(=O)c1c(O)c3c(c(O)c1C2=O)C[C@@](O)(C(=O)CO)C[C@@H]3O[C@H]1C[C@H](NC(=O)[C@H](CC(C)C)NC(=O)[C@H](CC(N)=O)NC(=O)[C@H](C)NC(=O)[C@H](C)NC(=O)[C@H](CC(N)=O)NC(=O)CCCCCN2C(=O)C=CC2=O)[C@H](O)[C@H](C)O1` [QHL-133] ({Hexanoyl(6-maleimido)}-NAANL-{Doxorubicin(3'-N)}), the solubility is over 2 mg/mL.

Turning to `COc1cccc2c1C(=O)c1c(O)c3c(c(O)c1C2=O)C[C@@](O)(C(=O)CO)C[C@@H]3O[C@H]1C[C@H](NC(=O)[C@H](CC(C)C)NC(=O)[C@H](CC(N)=O)NC(=O)[C@H](C)NC(=O)[C@H](C)NC(=O)[C@H](CCSC)NC(=O)CCCCCN2C(=O)C=CC2=O)[C@H](O)[C@H](C)O1` [QHL-126] ({Hexanoyl(6-maleimido)}-MAANL-{Doxorubicin(3'-N)}), the solubility was over 2 mg/mL.

The compound `COc1cccc2c1C(=O)c1c(O)c3c(c(O)c1C2=O)C[C@@](O)(C(=O)CO)C[C@@H]3O[C@H]1C[C@H](NC(=O)[C@H](CC(C)C)NC(=O)[C@H](CC(N)=O)NC(=O)[C@H](C)NC(=O)[C@H](C)NC(=O)[C@H](CCC(N)=O)NC(=O)CCCCCN2C(=O)C=CC2=O)[C@H](O)[C@H](C)O1` [QHL-134] ({Hexanoyl(6-maleimido)}-QAANL-{Doxorubicin(3'-N)}) displayed a solubility of over 5 mg/mL.

Compound `COc1cccc2c1C(=O)c1c(O)c3c(c(O)c1C2=O)C[C@@](O)(C(=O)CO)C[C@@H]3O[C@H]1C[C@H](NC(=O)[C@H](CC(C)C)NC(=O)[C@H](CC(N)=O)NC(=O)[C@H](C)NC(=O)[C@H](C)NC(=O)[C@H](CCC(=O)O)NC(=O)CCOCCOCCOCCNC(=O)CCN2C(=O)C=CC2=O)[C@H](O)[C@H](C)O1` [QHL-045] ({Propanoyl(3-maleimido)-PEG3}-EAANL-{Doxorubicin(3'-N)}) showed a solubility of over 20 mg/mL.

Compound `COc1cccc2c1C(=O)c1c(O)c3c(c(O)c1C2=O)C[C@@](O)(C(=O)CO)C[C@@H]3O[C@H]1C[C@H](NC(=O)[C@H](CC(C)C)NC(=O)[C@H](CC(N)=O)NC(=O)[C@H](C)NC(=O)[C@H](C)NC(=O)[C@H](CCC(=O)O)NC(=O)CCOCCOCCOCCOCCOCCOCCNC(=O)CCCN2C(=O)C=CC2=O)[C@H](O)[C@H](C)O1` [QHL-081] ({Butanoyl(4-maleimido)-PEG6}-EAANL-{Doxorubicin(3'-N)}) came in with a solubility of over 30 mg/mL.

`COc1cccc2c1C(=O)c1c(O)c3c(c(O)c1C2=O)C[C@@](O)(C(=O)CO)C[C@@H]3O[C@H]1C[C@H](NC(=O)[C@H](CC(C)C)NC(=O)[C@H](CC(N)=O)NC(=O)[C@H](C)NC(=O)[C@H](C)NC(=O)[C@H](CC(=O)O)NC(=O)CCOCCOCCOCCOCCOCCOCCNC(=O)CCN2C(=O)C=CC2=O)[C@H](O)[C@H](C)O1` [QHL-060] ({Propanoyl(3-maleimido)-PEG6}-DAANL-{Doxorubicin(3'-N)}) came in with a solubility of over 25 mg/mL.

Compound `CC[C@H](C)[C@H](NC(=O)CCCCCN1C(=O)C=CC1=O)C(=O)N[C@@H](C)C(=O)N[C@@H](C)C(=O)N[C@@H](CC(N)=O)C(=O)N[C@@H](CC(C)C)C(=O)N[C@H]1C[C@H](O[C@H]2C[C@](O)(C(=O)CO)Cc3c(O)c4c(c(O)c32)C(=O)c2c(OC)cccc2C4=O)O[C@@H](C)[C@H]1O` [QHL-125] ({Hexanoyl(6-maleimido)}-IAANL-{Doxorubicin(3'-N)}) showed a solubility of over 2 mg/mL.

Consider `COc1cccc2c1C(=O)c1c(O)c3c(c(O)c1C2=O)C[C@@](O)(C(=O)CO)C[C@@H]3O[C@H]1C[C@H](NC(=O)[C@H](CC(C)C)NC(=O)[C@H](CC(N)=O)NC(=O)[C@H](C)NC(=O)[C@H](C)NC(=O)[C@H](CC(=O)O)NC(=O)CCOCCOCCOCCOCCOCCOCCN2C(=O)C=CC2=O)[C@H](O)[C@H](C)O1` [QHL-036] ({Mal(CH2CH2O)6CH2CH2CO}-DAANL-{Doxorubicin(3'-N)}), for which the solubility is over 30 mg/mL.

In the case of `COc1cccc2c1C(=O)c1c(O)c3c(c(O)c1C2=O)C[C@@](O)(C(=O)CO)C[C@@H]3O[C@H]1C[C@H](NC(=O)[C@H](CC(C)C)NC(=O)[C@H](CC(N)=O)NC(=O)[C@H](C)NC(=O)[C@H](C)NC(=O)[C@H](CCC(=O)O)NC(=O)CCOCCOCCNC(=O)CCN2C(=O)C=CC2=O)[C@H](O)[C@H](C)O1` [QHL-039] ({Propanoyl(3-maleimido)-PEG2}-EAANL-{Doxorubicin(3'-N)}), the solubility was over 20 mg/mL.

As to `COc1cccc2c1C(=O)c1c(O)c3c(c(O)c1C2=O)C[C@@](O)(C(=O)CO)C[C@@H]3O[C@H]1C[C@H](NC(=O)[C@H](CC(C)C)NC(=O)[C@H](CC(N)=O)NC(=O)[C@H](C)NC(=O)[C@H](C)NC(=O)[C@H](CCC(=O)O)NC(=O)CCOCCOCCNC(=O)CCCN2C(=O)C=CC2=O)[C@H](O)[C@H](C)O1` [QHL-063] ({Butanoyl(4-maleimido)-PEG2}-EAANL-{Doxorubicin(3'-N)}), the solubility was over 15 mg/mL.

`COc1cccc2c1C(=O)c1c(O)c3c(c(O)c1C2=O)C[C@@](O)(C(=O)CO)C[C@@H]3O[C@H]1C[C@H](NC(=O)[C@H](CC(C)C)NC(=O)[C@H](CC(N)=O)NC(=O)[C@H](C)NC(=O)[C@H](C)NC(=O)[C@H](CC(=O)O)NC(=O)CCOCCOCCOCCOCCOCCOCCNC(=O)CCCN2C(=O)C=CC2=O)[C@H](O)[C@H](C)O1` [QHL-084] ({Butanoyl(4-maleimido)-PEG6}-DAANL-{Doxorubicin(3'-N)}) came in with a solubility of over 30 mg/mL.

Consider `COc1cccc2c1C(=O)c1c(O)c3c(c(O)c1C2=O)C[C@@](O)(C(=O)CO)C[C@@H]3O[C@H]1C[C@H](NC(=O)[C@H](CC(C)C)NC(=O)[C@H](CC(N)=O)NC(=O)[C@H](C)NC(=O)[C@H](C)NC(=O)[C@H](CC(=O)O)NC(=O)CCOCCOCCN2C(=O)C=CC2=O)[C@H](O)[C@H](C)O1` [QHL-033] (X2-DAANL-{Doxorubicin(3'-N)}), for which the solubility was over 20 mg/mL.

`COc1cccc2c1C(=O)c1c(O)c3c(c(O)c1C2=O)C[C@@](O)(C(=O)CO)C[C@@H]3O[C@H]1C[C@H](NC(=O)[C@H](CC(C)C)NC(=O)[C@H](CC(N)=O)NC(=O)[C@H](C)NC(=O)[C@H](C)NC(=O)[C@H](CC(=O)O)NC(=O)CCOCCOCCOCCOCCNC(=O)CCN2C(=O)C=CC2=O)[C@H](O)[C@H](C)O1` [QHL-054] ({Propanoyl(3-maleimido)-PEG4}-DAANL-{Doxorubicin(3'-N)}) yielded a solubility of over 25 mg/mL.

`COc1cccc2c1C(=O)c1c(O)c3c(c(O)c1C2=O)C[C@@](O)(C(=O)CO)C[C@@H]3O[C@H]1C[C@H](NC(=O)[C@H](CC(C)C)NC(=O)[C@H](CC(N)=O)NC(=O)[C@H](C)NC(=O)[C@H](C)NC(=O)CCOCCOCCOCCOCCOCCOCCNC(=O)CCCN2C(=O)C=CC2=O)[C@H](O)[C@H](C)O1` [QHL-108] ({Butanoyl(4-maleimido)-PEG6}-AANL-{Doxorubicin(3'-N)}) came in with a solubility of over 20 mg/mL.

For `COc1cccc2c1C(=O)c1c(O)c3c(c(O)c1C2=O)C[C@@](O)(C(=O)CO)C[C@@H]3O[C@H]1C[C@H](NC(=O)[C@H](CC(C)C)NC(=O)[C@H](CC(N)=O)NC(=O)[C@H](C)NC(=O)[C@H](C)NC(=O)[C@H](CCC(=O)O)NC(=O)CCOCCOCCOCCOCCNC(=O)CCN2C(=O)C=CC2=O)[C@H](O)[C@H](C)O1` [QHL-051] ({Propanoyl(3-maleimido)-PEG4}-EAANL-{Doxorubicin(3'-N)}), the solubility was over 25 mg/mL.

Regarding `COc1cccc2c1C(=O)c1c(O)c3c(c(O)c1C2=O)C[C@@](O)(C(=O)CO)C[C@@H]3O[C@H]1C[C@H](NC(=O)[C@H](CC(C)C)NC(=O)[C@H](CC(N)=O)NC(=O)[C@H](C)NC(=O)[C@H](C)NC(=O)[C@H](CCC(=O)O)NC(=O)CCOCCOCCOCCOCCN2C(=O)C=CC2=O)[C@H](O)[C@H](C)O1` [QHL-023] (MaleimidoPEG4propanoyl-EAANL-{Doxorubicin(3'-N)}), the solubility is over 25 mg/mL.

As to `COc1cccc2c1C(=O)c1c(O)c3c(c(O)c1C2=O)C[C@@](O)(C(=O)CO)C[C@@H]3O[C@H]1C[C@H](NC(=O)[C@H](CC(C)C)NC(=O)[C@H](CC(N)=O)NC(=O)[C@H](C)NC(=O)[C@H](C)NC(=O)[C@H](CCC(=O)O)NC(=O)CCOCCOCCOCCOCCOCCOCCN2C(=O)C=CC2=O)[C@H](O)[C@H](C)O1` [QHL-024] ({Mal(CH2CH2O)6CH2CH2CO}-EAANL-{Doxorubicin(3'-N)}), the solubility was over 30 mg/mL.
